Experimental findings from patent US20250258165A1 (OSAKA UNIVERSITY, published 2025) are described below.

The target of this test is T1, p300 (mouse, UniProt B2RWS6 2-2412).
T1 construct: whole, on cells; Endogenous protein inside fixed, permeabilised LPS-stimulated mouse spleen B cells; It was detected through a DNA barcode-labeled antibody (clone RW128)
Put plainly: joining PCR of DNA barcode-labeled antibodies in hydrogel with NGS; LPS-stimulated mouse spleen B cells.

T1 sequence (B2RWS6 2-2412): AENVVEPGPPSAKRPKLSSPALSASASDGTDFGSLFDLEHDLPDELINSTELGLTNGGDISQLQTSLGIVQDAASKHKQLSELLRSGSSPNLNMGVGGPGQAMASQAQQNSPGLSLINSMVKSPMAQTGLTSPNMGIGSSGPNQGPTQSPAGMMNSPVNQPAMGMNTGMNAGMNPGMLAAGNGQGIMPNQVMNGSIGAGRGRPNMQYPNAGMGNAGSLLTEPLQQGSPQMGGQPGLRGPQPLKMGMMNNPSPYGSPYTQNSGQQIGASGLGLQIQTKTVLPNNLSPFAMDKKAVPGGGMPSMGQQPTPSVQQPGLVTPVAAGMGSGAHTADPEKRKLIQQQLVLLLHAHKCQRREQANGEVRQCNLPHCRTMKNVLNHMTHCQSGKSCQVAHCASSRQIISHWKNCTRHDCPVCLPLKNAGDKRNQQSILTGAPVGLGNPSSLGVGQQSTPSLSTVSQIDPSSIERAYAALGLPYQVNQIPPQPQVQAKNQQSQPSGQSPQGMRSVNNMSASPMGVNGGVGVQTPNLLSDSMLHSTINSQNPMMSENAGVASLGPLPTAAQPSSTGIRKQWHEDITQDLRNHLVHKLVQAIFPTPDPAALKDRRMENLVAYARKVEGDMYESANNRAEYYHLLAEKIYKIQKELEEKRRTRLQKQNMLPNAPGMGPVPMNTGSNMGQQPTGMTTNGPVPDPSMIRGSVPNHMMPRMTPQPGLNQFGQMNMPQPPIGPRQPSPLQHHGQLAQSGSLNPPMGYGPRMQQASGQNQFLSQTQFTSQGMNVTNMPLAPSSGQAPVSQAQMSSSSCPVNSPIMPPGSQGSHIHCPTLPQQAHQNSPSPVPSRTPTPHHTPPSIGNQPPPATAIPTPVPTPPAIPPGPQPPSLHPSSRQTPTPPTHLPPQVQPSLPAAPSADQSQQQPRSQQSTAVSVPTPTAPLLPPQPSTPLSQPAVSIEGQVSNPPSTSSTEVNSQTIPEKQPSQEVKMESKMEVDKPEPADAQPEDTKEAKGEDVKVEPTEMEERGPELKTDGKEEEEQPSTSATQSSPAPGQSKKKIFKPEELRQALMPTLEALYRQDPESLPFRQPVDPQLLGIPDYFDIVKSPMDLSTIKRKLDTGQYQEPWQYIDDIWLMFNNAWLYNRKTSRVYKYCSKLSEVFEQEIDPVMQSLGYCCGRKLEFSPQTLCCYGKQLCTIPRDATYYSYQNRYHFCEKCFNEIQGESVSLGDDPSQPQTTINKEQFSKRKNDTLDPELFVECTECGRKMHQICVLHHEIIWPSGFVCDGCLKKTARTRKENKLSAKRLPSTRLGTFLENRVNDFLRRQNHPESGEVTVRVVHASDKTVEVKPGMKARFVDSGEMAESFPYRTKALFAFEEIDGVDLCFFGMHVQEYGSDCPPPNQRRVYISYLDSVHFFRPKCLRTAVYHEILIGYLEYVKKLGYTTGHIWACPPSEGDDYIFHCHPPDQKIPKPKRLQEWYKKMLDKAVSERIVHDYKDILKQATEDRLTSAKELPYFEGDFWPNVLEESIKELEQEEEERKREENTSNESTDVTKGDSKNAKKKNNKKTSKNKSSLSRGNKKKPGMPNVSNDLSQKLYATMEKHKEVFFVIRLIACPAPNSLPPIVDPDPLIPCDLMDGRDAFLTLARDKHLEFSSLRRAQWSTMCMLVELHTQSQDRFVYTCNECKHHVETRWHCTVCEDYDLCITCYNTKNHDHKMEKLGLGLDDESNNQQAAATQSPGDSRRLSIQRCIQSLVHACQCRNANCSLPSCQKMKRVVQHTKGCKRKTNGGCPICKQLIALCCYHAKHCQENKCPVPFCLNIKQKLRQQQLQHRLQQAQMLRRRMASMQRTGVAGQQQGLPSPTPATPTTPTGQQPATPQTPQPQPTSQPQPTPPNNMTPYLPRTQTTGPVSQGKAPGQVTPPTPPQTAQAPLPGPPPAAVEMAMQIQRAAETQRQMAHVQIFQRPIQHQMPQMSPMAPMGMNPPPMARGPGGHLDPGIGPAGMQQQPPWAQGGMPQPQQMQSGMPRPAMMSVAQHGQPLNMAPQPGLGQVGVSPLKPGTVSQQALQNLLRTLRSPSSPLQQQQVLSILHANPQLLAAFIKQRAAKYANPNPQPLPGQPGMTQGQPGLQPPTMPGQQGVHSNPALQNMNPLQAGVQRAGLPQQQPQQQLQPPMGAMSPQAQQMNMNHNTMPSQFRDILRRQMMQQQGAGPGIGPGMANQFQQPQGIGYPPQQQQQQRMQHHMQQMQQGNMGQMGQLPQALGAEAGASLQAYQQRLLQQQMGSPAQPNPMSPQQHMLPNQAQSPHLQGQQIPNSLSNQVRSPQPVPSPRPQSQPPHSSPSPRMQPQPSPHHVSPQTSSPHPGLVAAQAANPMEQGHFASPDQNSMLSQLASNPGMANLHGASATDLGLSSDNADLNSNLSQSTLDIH
Method: B cells collected from mouse spleen were suspended in serum-free medium. The cells were seeded on each well of fluororesin-coated glass slides (super hydrophobic printed glass slides, 10 wells, 6 mm diameter, Matsunami Glass Ind., Ltd., Cat. No. TF1006, see FIG. 6) with an adjusted density of 5000 cells/30 μL per circle. The cells were cultured in 5% CO₂ at 37° C. for 30 minutes, and the culture supernatant was removed. […] The cells were cultured in 5% CO₂ at 37° C. for 24 hours. IL-4 was used as stimulation for B-cell activation.
The joining PCR of the antibody barcodes that come in close proximity was performed using Mastercycler nexus flat (trade-name) (Eppendorf) PCR cycler. […] The PCR reaction was performed through a program consisting of six steps: step 1: 95° C., 2 minutes; step 2: (95° C., 30 seconds and 68° C., 1 minute)×10 cycles; step 3: (95° C., 30 seconds, 55° C., 30 seconds and 68° C., 1 minute)×2 cycles; step 4: (95° C., 30 seconds, 60° C., 30 seconds and 68° C., 1 minute)×16 cycles; step 5: 68° C., 1 minute; and step 6: 4° C., infinity. The samples after completion of the PCR reaction were stored at −20° C.

B1: Lamin B1 (other, mouse, UniProt P14733 2-585, looked up)
chain: ATATPVQQQRAGSRASAPATPLSPTRLSRLQEKEELRELNDRLAVYIDKVRSLETENSALQLQVTEREEVRGRELTGLKALYETELADARRALDDTARERAKLQIELGKFKAEHDQLLLNYAKKESDLSGAQIKLREYEAALNSKDAALATALGDKKSLEGDLEDLKDQIAQLEASLSAAKKQLADETLLKVDLENRCQSLTEDLEFRKNMYEEEINETRRKHETRLVEVDSGRQIEYEYKLAQALHEMREQHDAQVRLYKEELEQTYHAKLENARLSSEMNTSTVNSAREELMESRMRIESLSSQLSNLQKESRACLERIQELEDMLAKERDNSRRMLSDREREMAEIRDQMQQQLSDYEQLLDVKLALDMEISAYRKLLEGEEERLKLSPSPSSRVTVSRASSSRSVRTTRGKRKRVDVEESEASSSVSISHSASATGNVCIEEIDVDGKFIRLKNTSEQDQPMGGWEMIRKIGDTSVSYKYTSRYVLKAGQTVTVWAANAGVTASPPTDLIWKNQNSWGTGEDVKVILKNSQGEEVAQRSTVFKTTIPEEEEEEEEEPIGVAVEEERFHQQGAPRASNKSC
notes: whole, on cells; Endogenous protein inside fixed, permeabilised LPS-stimulated mouse spleen B cells; It was detected through a DNA barcode-labeled antibody (clone L-5)
As for B1, the binding result is given as “binds”.
